Data: patent US20220372114A1 (published 2022)
Numbering of substitutions follows the chain as printed.

B1: 4-M3-A (antibody, V domains shown)
VH: EVQLQQSGPELVKPGDSVKISCKASGYSFTGYFMNWVMQSHGKSLEWIGRINPNNGETFYNQKFKGKATLTVDKSSDTAHMELRSLTSEDSAVYYCARGGTGTGWGQGTTLTVSS
VL: DILMTQSPSSMSVSLGDTVSITCHASQGISSNIGWLQQKPGKSFKGLIYYGTNLEDGVPSRFSGSGSGADYSLTISSLESEDLADYYCIQYAQFPYTFGGGTKLEIK
B2: 4-N22-A (antibody, V domains shown)
VH: QVQLQQPGTELVKPGASVKLSCKASGYTFTNYWMYWVKQRPGQGLDWIGNINPSNGGTNYNEKFKSKATLTVDKSSSTAYMQLSSLTSEDSAVYYCARETGNYWGQGTTLTVSS
VL: B1 VL with T22S, Y50H, L83F, I89V
B3: 1-L10-A (antibody, V domains shown)
VH: EVKLEESGGGLVQPGGSMKLSCVASGFTFNNYWMNWVRQSPEKGLEWVAQMRLKSDNYATHYAESVKGRFTISRDDSKSSVYLQMNNLRAEDTGIYYCIEGYWTYWGQGTLVTVSA
VL: QIVLTQSPAIMSASLGERVTMTCTASSSVSSSYLHWYQQKPGSSPKLWIYSTSNLASGVPARFSGNGSGTSYSLTISSMEAEDAATYYCLQYHRSPPYTFGGGTKLEIK
B4: 8-L17-A (antibody, V domains shown)
VH: EVQLVESGGGLVQPKGSLKLSCAASGFTFNTYAMHWVRQAPGKGLEWVARIRSKSSNYARYYADSVKDRFTISRDDSQSMLYLQMNNLKTEDTAMYYCVRDHDYYGSSYWFAYWGQGTLVTVSA
VL: DVVMTQTPLSLPVSLGDQASISCRSSQSLVHNNGNTYLHWYLQKPGQSPKLLIYKVSNRFSGVPDRFSGSGSGTDFTLKISRVEAEDLGVYFCSQSTHVPWTFGGGTKLEIK
B5: 8-H3-A (antibody, V domains shown)
VH: B4 VH with R60T, A112T
VL: B4 VL with N32D, Y41F, A85T
B6: 3-P7-A (antibody, V domains shown)
VH: QAYLQQSGAELVRPGASVKMSCKASGYTFTSYSMHWVKQTPRQGLEWIGAIYPGNDDTSYNQKFKGKATLTVDKSSSTAYMQLSSLTSEDSAVYFCTRDYTNYPFDYWGQGTTLTVSS
VL: DIVLTQSPASLPVSLGQRATISCRASKSVSTSGYSYMHWYQQRPGQPPKLLIYLASNLESGVPARFSASGSGTDFTLNIHPVEEEDAATYYCQHSRELPPTFGGGTKVEIK
B7: 2-G20-A (antibody, V domains shown)
VH: EVQLQQSGPELVKPGASVKMSCKASGYTFPSYVLHWVKQKPGQGLEWIGYIYPYNDGTNYNEKFKGKATLTSDKSSSTAYMELSSLTSEDSAVYYCARGDYGDSAWFPYWGQGTLVTVSA
VL: B6 VL with P12A, R43K, E59K, A68G, S69G, H94L, P100W, V108L
B8: 2-H7-A (antibody, V domains shown)
VH: QAYLQQSGAELVRPGASVKMSCKASGYTFTGYTMHWVKQTPRQGLEWIGAIYPENGDTSYNQKFKGKATLTVDKSSSTAYMQLSSLTSEDSAVYFCARDGYDVLYGMDYWGQGTSVTVSS
VL: B6 VL with P12A, R43K, A68G, P100W, V108L, E109D
B9: 9-K4-A (antibody, V domains shown)
VH: B6 VH with T30P, S31N, M34F, K63R, T97A, T101S, Y107C
VL: B6 VL with P12A, R43K, A68G, V108L
B10: 10-O24-A (antibody, V domains shown)
VH: B6 VH with K74R, T101S
VL: B6 VL with P12A, S14F, A68G, V108L
B11: 4-L4-A (antibody, V domains shown)
VH: QAYLQQSGAELVRPGASVKMSCKASGYTFTSYTVHWVKQTPRQGLEWIGGIYPGNVDTSYNQNFKGKATLTVDKSSSTAYMQLSSLTSEDSAVYFCARDGYYAMDYWGQGTSVTVSS
VL: not shown
B12: 2-O12-A (antibody, V domains shown)
VH: EVQLQQSGPELVKPGASVKISCKASGYTFTDYYMNWVKQSHGKSLEWIGDINSNNGGTTYDQKFKGKATLTVDRSSSTAYMELRSLTSEDSAVYYCARRGDGHFGGFTYWGQGTLVTVSA
VL: not shown
B13: 3-E2-A (antibody, V domains shown)
VH: B12 VH with S53P, T59S, D61T, R74K, T78K, F104Y
VL: not shown
B14: 6-O12-A (antibody, V domains shown)
VH: QVQLQQPGTELVKPGASVKLSCKASGYTFTSYWMHWVKQRPGQGLEWIGNINPSNGGTNYNEKFRSKATLTVDKSSSTAYMQLSSLTSEDSAVYYCARLGWFLPLGSWGQGTTLTVSS
VL: QIVLTQSPAIMSASLGEVITLTCSASSSVSYMHWYQQKSGTSPKLLIYSTSNLASGVPSRFSGSGSGTFYSLTISSVEAEDAADYYCHQWSGYMYTFGGGTKLEIK
B15: 9-F6-A (antibody, V domains shown)
VH: EVQLQQSGPELVKPGASVKMSCKASGYTFTSYIMHWVKQKPGQGLEWIGYILPYNDGTKYNEKFKGKATLTSDKSSSTAYMELRSLTSEDSAVYYCARWGYSNFLDSWGQGTTLTVSS
VL: DIQMTQTTSSLSASLGDRVTISCRASQDINNYLNWYQQKPDGTVKLLIYYTSRLHSGVPSRFSGSGSGTDYSLTIRNLEQEDIATYFCQQGNTLPPTFGGGTKLEIK
B16: 8-H5-A (antibody, V domains shown)
VH: QVTLKESGPGILQSSQTLSLTCSLSGFSLSTSGMGVSWVRQPSGKGLEWLAHIYWDDDKRYTPSLKSRLTISTDSSRKQVFLKITSVDTADTATYYCARRDLHDYDGWFAYWGQGTLVTVSA
VL: DIVMTQSQKFMSTAVGDRVSVTCKASQNVGTNVAWYQQKPGQSPKALIYSASFRYSGVPDRFSGSGSGTDFTLTISNVQSEDLAEYFCQQYNSYPLTFGSGTKLEIK
B17: 2-P2-A (antibody, V domains shown)
VH: EVQLQQSGAELVRPGSSVKMSCKTSGYTFTSYGINWVKQRPGQGLEWIGYIYIGNGYTEYNEKFKGKATLTSDTSSSTAYMQLSSLTSEDSAIYFCARGGVDYWGQGTTLTVSS
VL: B4 VL with V3L, L29I, N32S, H39E, F92Y, S94F, S96G, T97S, W101Y
B18: 1-B11-A (antibody, V domains shown)
VH: QVQLQQSGPELVKPGASVKISCKASGYTFTDHYINWVKQRPGQGLEWIGWIFPGSGSTYYNEQFKGKATLTVDKSSNTAYMLLSSLTSEDSAVYFCARSGGLRLGFAYWGQGTLVTVSA
VL: B15 VL with N30S, R76S, A84S, G91V, P96Y
B19: 10-B13-A (antibody, V domains shown)
VH: QVQLQQSGAELVKPGASVKISCKASGYAFSNYWMNWVKQRPGKGLEWIGQIYPGDGDTNYNGNFKGKATLTADKSSSTAYIQLSSLTSEDSAVYFCGRGFIATVVEVFDHWGLGTTLTVSS
VL: B15 VL with N30S, H55Q, S67T, R76S, P96W
B20: 8-A17-A (antibody, V domains shown)
VH: QVQLKESGPGLVAPSQSLSITCTVSGFSLTSYAISWVRQPPGKGLEWLGVVWPGGGTNYNSALKSRLSINKDNSKSQVFLKMNSLQTDDTGRYYCARTGYHFDYWGQGTTLTVSS
VL: QIVLTQSPAIMSASPGEKVTMTCSVSSSVSYMHWYQQKSGTSPKRWIYDTSKLASGVPARFSGSGSGTSYSLTISSMEAEDAATYYCQQWSSNPPMYTFGGGTKLEIK

What follows are binders tested against SARS-CoV-2 (WIV02 isolate) prefusion stabilized spike trimer protein (UniProt P0DTC2 14-1213) (assay: ELISA).

Binder | IC50
B1 | 7.36 nM
B2 | 4.93 nM
B3 | 8.65 nM
B4 | 60.8 nM
B5 | 19.4 nM
B6 | 8.86 nM
B7 | 18.3 nM
B8 | 7.21 nM
B9 | 72.6 nM
B10 | 5.84 nM
B11 | 8.34 nM
B12 | 14.9 nM
B13 | 18.4 nM
B14 | 7.62 nM
B15 | 16.7 nM
B16 | 12.8 nM

These binders were tested against SARS-CoV-1 Spike (SARS-CoV-1, UniProt P59594 14-1195) (assay: ELISA).

Binder | IC50
B3 | 7.5 nM
B17 | 17.9 nM
B7 | 6.65 nM
B14 | 5.4 nM
B18 | 20.9 nM
B15 | 5.55 nM
B19 | 19.4 nM
B20 | 5.1 nM
